Here are results for 63 sequences from the supplement of paper PMC9112550, “Optimization of the antimicrobial peptide Bac7 by deep mutational scanning” (BMC Biology, 2022).
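Note: peptides expressed intracellularly from a pBAD plasmid library in pooled LB shake-flask culture, induced with 0.3% L-arabinose, DNA abundance read by NGS, three biological replicates, DESeq2 with apeglm shrinkage.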

This series has as its system Escherichia coli TOP10. Nature of the series: shrunken log2 fold change of peptide-encoding DNA abundance (4.5 h post-induction vs induction); higher = less antimicrobial activity (less host growth inhibition). To be noted: time post-induction: 4.5 h; library: site-saturation at positions 5, 18, 19, 20.
On to RRIRRRPPRLPRPRPRPWFLPRP, for which the “shrunken log2 fold change” value was -0.19.
RRIRHRPPRLPRPRPRPFFCPRP: the “shrunken log2 fold change” value is -0.16.
As for RRIRSRPPRLPRPRPRPLRSPRP, the figure is 0.747; as for RRIRYRPPRLPRPRPRPLLQPRP, -0.309.
The value for RRIRTRPPRLPRPRPRPLMFPRP was -0.516.
RRIRLRPPRLPRPRPRPGPNPRP: the “shrunken log2 fold change” value stood at 0.0611.
The value for RRIRERPPRLPRPRPRPRDMPRP was 0.0375.
RRIRYRPPRLPRPRPRPTCAPRP: the “shrunken log2 fold change” value was -0.0853.
For RRIRARPPRLPRPRPRPIQHPRP, the “shrunken log2 fold change” value is -0.132.
The value for RRIRTRPPRLPRPRPRPWVTPRP was -0.117; that for RRIRRRPPRLPRPRPRPFENPRP was 0.0967.
Consider RRIRHRPPRLPRPRPRPESCPRP, for which the “shrunken log2 fold change” value stood at 0.0512.
Turning to RRIRVRPPRLPRPRPRPRGDPRP, the “shrunken log2 fold change” value stood at 0.754.
As for RRIRQRPPRLPRPRPRPRRTPRP, the figure is 0.655; as for RRIRTRPPRLPRPRPRPWAGPRP, -0.0234; as for RRIRGRPPRLPRPRPRPDILPRP, 0.785.
As for RRIRHRPPRLPRPRPRPEAPPRP, the figure is 0.641; as for RRIRSRPPRLPRPRPRPSFHPRP, -0.542.
The value for RRIRCRPPRLPRPRPRPHCQPRP was 0.0911; that for RRIRVRPPRLPRPRPRPYRMPRP was -0.467.
In the case of RRIRERPPRLPRPRPRPGIFPRP, the “shrunken log2 fold change” value was determined as 0.099.
For RRIRLRPPRLPRPRPRPDQCPRP, the “shrunken log2 fold change” value was -0.0609.
Turning to RRIRMRPPRLPRPRPRPRCFPRP, the “shrunken log2 fold change” value amounted to 0.397.
The value for RRIRARPPRLPRPRPRPKLYPRP was 0.0318; that for RRIRERPPRLPRPRPRPKQTPRP was -0.0871; that for RRIRGRPPRLPRPRPRPDCEPRP was 1.44.
On to RRIRQRPPRLPRPRPRPWNPPRP, for which the “shrunken log2 fold change” value was -0.0759.
The value for RRIRWRPPRLPRPRPRPENSPRP was 0.0193; that for RRIRLRPPRLPRPRPRPVAPPRP was 0.474.
As for RRIRARPPRLPRPRPRPIAKPRP, the figure is 0.217; as for RRIRQRPPRLPRPRPRPVYRPRP, -0.308.
With RRIRERPPRLPRPRPRPPYVPRP, the “shrunken log2 fold change” value was -0.524.
As for RRIRWRPPRLPRPRPRPFHMPRP, the figure is -0.138.
The value for RRIRPRPPRLPRPRPRPKNGPRP was 0.069.
As for RRIRSRPPRLPRPRPRPNDWPRP, the figure is 0.179; as for RRIRQRPPRLPRPRPRPEGGPRP, 0.161; as for RRIRLRPPRLPRPRPRPHMFPRP, -0.356.
As for RRIRCRPPRLPRPRPRPCQSPRP, the “shrunken log2 fold change” value was 0.00299.
The value for RRIRMRPPRLPRPRPRPDTNPRP was 1.3; that for RRIRNRPPRLPRPRPRPKCIPRP was -0.223; that for RRIRERPPRLPRPRPRPASEPRP was -0.123.
Take RRIRDRPPRLPRPRPRPWVRPRP: the “shrunken log2 fold change” value was -0.21.
As for RRIRQRPPRLPRPRPRPTDYPRP, the figure is -0.116; as for RRIRARPPRLPRPRPRPPMLPRP, 0.805; as for RRIRGRPPRLPRPRPRPKDYPRP, -0.00224.
Consider RRIRIRPPRLPRPRPRPLITPRP, for which the “shrunken log2 fold change” value was -0.71.
The value for RRIRARPPRLPRPRPRPCINPRP was -0.353.
In the case of RRIRFRPPRLPRPRPRPCRSPRP, the “shrunken log2 fold change” value was found to be 0.974.
The value for RRIRSRPPRLPRPRPRPWPFPRP was 0.0554; that for RRIRCRPPRLPRPRPRPKKGPRP was -0.129; that for RRIRMRPPRLPRPRPRPTAVPRP was 1.64.
Take RRIRGRPPRLPRPRPRPRAKPRP: the “shrunken log2 fold change” value is 1.22.
In the case of RRIRGRPPRLPRPRPRPVIIPRP, the “shrunken log2 fold change” value amounted to 2.29.
Consider RRIRHRPPRLPRPRPRPNLRPRP, for which the “shrunken log2 fold change” value stood at 0.00562.
The value for RRIRYRPPRLPRPRPRPNRGPRP was -0.124; that for RRIRNRPPRLPRPRPRPRMVPRP was -0.289; that for RRIRYRPPRLPRPRPRPSCRPRP was -0.6.
Consider RRIRLRPPRLPRPRPRPSHAPRP, for which the “shrunken log2 fold change” value is 0.212.
For RRIRMRPPRLPRPRPRPPKHPRP, the “shrunken log2 fold change” value is 0.829.
As for RRIRSRPPRLPRPRPRPRPNPRP, the figure is 0.345; as for RRIRKRPPRLPRPRPRPTTDPRP, 0.385; as for RRIRFRPPRLPRPRPRPIPAPRP, -0.15.
Consider RRIRKRPPRLPRPRPRPADFPRP, for which the “shrunken log2 fold change” value stood at 0.344.
